{
  "source": "patent US20040001842A1",
  "key": {"[1]": {"molecular_target": "human CCK-B/gastrin receptor (human) (UniProt P32239)", "test": "125I-labelled serum injected into nude mice with C170HM2 liver xenografts, CPM/g"}, "[2]": {"molecular_target": "CCK-B/gastrin receptor on AR42J cells (rat pancreatic adenocarcinoma) (rat) (UniProt P30553)", "sequence (P30553 whole entry)": "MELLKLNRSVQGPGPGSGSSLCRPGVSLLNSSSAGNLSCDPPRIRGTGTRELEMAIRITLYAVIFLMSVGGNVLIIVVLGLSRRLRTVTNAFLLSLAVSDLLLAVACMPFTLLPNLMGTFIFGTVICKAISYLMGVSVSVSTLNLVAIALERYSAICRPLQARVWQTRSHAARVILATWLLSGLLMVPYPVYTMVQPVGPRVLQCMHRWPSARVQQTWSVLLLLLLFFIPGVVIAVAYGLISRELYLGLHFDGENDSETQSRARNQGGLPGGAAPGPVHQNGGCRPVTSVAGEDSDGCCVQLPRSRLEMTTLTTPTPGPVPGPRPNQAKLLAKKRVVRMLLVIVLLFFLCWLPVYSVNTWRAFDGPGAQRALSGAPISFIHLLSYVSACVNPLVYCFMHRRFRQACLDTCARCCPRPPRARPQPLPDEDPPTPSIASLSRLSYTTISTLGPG", "test": "radioligand inhibition on AR42J cells, GnRH against 125I-hG17"}, "[3]": {"molecular_target": "affinity purified rabbit Anti-GRE11 antibodies", "test": "quantitative immunofluorescence on H69 cells, peptide as inhibitor, relative to GnRH"}, "[4]": {"molecular_target": "affinity purified rabbit Anti-GRE11 antibodies", "test": "quantitative immunofluorescence on H69 cells, 1:1 mixture of GRE1 and GRE6 as inhibitor, relative to GnRH"}, "[5]": {"molecular_target": "Affinity purified rabbit anti-GRE1 antibodies", "test": "inhibition ELISA, mixture of GRE1 EPT and Ser spacer in solution against GRE1-Ser-BSA on the plate"}, "[6]": {"molecular_target": "Affinity purified rabbit anti-GRE1 antibodies", "test": "inhibition ELISA, peptide in solution against GRE1-Ser-BSA on the plate"}},
  "data": [
    {"molecule": "normal rabbit serum", "values": [
      {"measurement": "liver tumor/liver ratio of radiolabel", "setting": "[1]", "result": 1}
    ]},
    {"molecule": "gonadotropin releasing hormone (from UniProt P01148 24-33) (peptide)", "values": [
      {"measurement": "% inhibition of 125I-hG17 binding", "setting": "[2]", "result": 6, "unit": "%"}
    ]},
    {"molecule": "MELLKLNRSVQGC", "note": "[GRE6 peptide]", "values": [
      {"measurement": "percent inhibition of antibody binding", "setting": "[3]", "result": 4, "unit": "%"}
    ]},
    {"molecule": "KLNRSVQGTGPGPGASL", "note": "[GRE1 EPT peptide]", "values": [
      {"measurement": "percent inhibition of antibody binding", "setting": "[4]", "result": 49, "unit": "%"},
      {"measurement": "% inhibition", "setting": "[5]", "result": 60, "unit": "%"},
      {"measurement": "% inhibition", "setting": "[6]", "result": 60, "unit": "%"},
      {"measurement": "percent inhibition of antibody binding", "setting": "[3]", "result": 57, "unit": "%"}
    ]},
    {"molecule": "MELLKLNRSVQGTGPGPGASLC", "note": "[GRE11 peptide]", "values": [
      {"measurement": "percent inhibition of antibody binding", "setting": "[3]", "result": 84, "unit": "%"}
    ]}
  ]
}
